Results published in paper PMC3688715.

Molecular target: Heteropneustes fossilis hepatic cytosolic arginase (ARG I) (Heteropneustes fossilis (endogenous in liver))
Assay: SEC + other: SDS-PAGE and western blotting; native mass of the purified enzyme by gel filtration on Sephadex G-150 with four standard proteins (75±3 kDa); subunit mass by SDS-PAGE and western blotting (24 kDa); single band on native PAGE

Heteropneustes fossilis hepatic cytosolic arginase (ARG I) (enzyme)
stoichiometry N: 3
